Test [1] deals with Aga2-15xGly/Ser-EGFP-4xGly/Ser-HaloTag[3-19]-4xGly/Ser-…. As to the kind of experiment: flow cytometry of yeast displaying the tag; reporter bound, washed, then JF549 HaloTag ligand.
Test [2] shares this target. The description is as above. This is another data set of the same source.
The target in test [3] is Aga2-15xGly/Ser-EGFP-4xGly/Ser-HaloTag[3-19]-4xGly/Ser-VS-HiBiT. The test is described as above.
Test [4] has as its target Aga2-15xGly/Ser-EGFP-4xGly/Ser-HaloTag[3-19]-4xGly/Ser-…. The description is as above. The source holds these as a separate data set.
In test [5] the target is Aga2-15xGly/Ser-4xGly/Ser-HaloTag[3-19]-4xGly/Ser-VS-HiBiT. The description is as above.
Test [6] concerns the target T1, Biotin-HaloTag[3-19] (I2R)-4xGly/Ser-VS-HiBiT (N-terminal biotin).
T1 construct: Synthetic peptide; also called HaloTag[3-19](12R)-4×Gly/Ser-VS-HiBiT; DualTag peptide
T1 peptide: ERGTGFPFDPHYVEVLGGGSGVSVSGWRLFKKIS
As to the kind of experiment: BLI; biotin-peptide on streptavidin probe; PBST, 25 C.

The target of test [7] is T2, VS-HiBiT-HaloTag[3-19] (I2R) (not fully specified; N-terminal biotin (on Val1) per the head of Table 1 ('All peptides are biotinylated at the N-terminus'), though Table 2 does not print Biotin for this entry; not carried by the …).
T2 construct: Synthetic peptide
The description is as above.

The target of test [8] is T3, Biotin-VS-HiBiT-5xGly/Ser-HaloTag[3-19] (I2R) (N-terminal biotin (on Val1), used for immobilisation on streptavidin probes; not carried by the letters).
T3 construct: Synthetic peptide
T3 peptide: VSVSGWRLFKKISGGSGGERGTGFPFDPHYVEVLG
The test is described as above.

Test [9] deals with T4, Biotin-HaloTag[3-19] (I2R)-VS-HiBiT (N-terminal biotin (on Glu1), used for immobilisation on streptavidin probes; not carried by the letters).
T4 construct: Synthetic peptide
T4 peptide: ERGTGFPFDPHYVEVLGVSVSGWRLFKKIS
The test is described as above.

For test [10], the target named is T5, Biotin-HaloTag[3-19] (I2R)-4xGly/Ser-VS-HiBiT (K8R + K9R) (N-terminal biotin (on Glu1), used for immobilisation on streptavidin probes; not carried by the letters).
T5 construct: Synthetic peptide
T5 peptide: T1 peptide with K31R, K32R
The description is as above.

Test [11] deals with T6, Biotin-HaloTag[3-19] (I2R)-4xGly/Ser-HiBiT (N-terminal biotin (on Glu1), used for immobilisation on streptavidin probes; not carried by the letters).
T6 construct: Synthetic peptide
T6 peptide: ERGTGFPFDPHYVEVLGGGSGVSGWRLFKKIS
The test is described as above.

These results are taken from patent publication US20240368565A1 (PROMEGA, published 2024).

Residue numbers refer to the chain shown, from its start. Numbers in names are those of the source.

B1: HaloTag[22-297](M2F)-12xGly/Ser-LgBiT-3xGly/Ser-6xHis (other)
chain: MFHYVDVGPRDGTPVLFLHGNPTSSYVWRNIIPHVAPTHRCIAPDLIGMGKSDKPDLGYFFDDHVRFMDAFIEALGLEEVVLVIHDWGSALGFHWAKRNPERVKGIAFMEFIRPIPTWDEWPEFARETFQAFRTTDVGRKLIIDQNVFIEGTLPMGVVRPLTEVEMDHYREPFLNPVDREPLWRFPNELPIAGEPANIVALVEEYMDWLHQSPVPKLLFWGTPGVLIPPAEAARLAKSLPNCKAVDIGPGLNLLQEDNPDLIGSEIARWLSTLEISGGSGGSGGGGSGGMVFTLEDFVGDWEQTAAYNLDQVLEQGGVSSLLQNLAVSVTPIQRIVRSGENALKIDIHVIIPYEGLSADQMAQIEEVFKVVYPVDDHHFKVILPYGTLVIDGVTPNMLNYFGRPYEGIAVFDGKKITVTGTLWNGNKIIDERLITPDGSMLFRVTINSGSGHHHHHH
notes: Purified tandem polypeptide reporter (large split-HaloTag fragment fused to LgBiT); also called Reporter
In the case of B1, the “percent of cells in the JF549+ gate” value in [1] turned out to be 6.96%; in test [2], 44.8%; in test [3], 46.4%; in [4], 44.2%; in test [5], 48.9%. In test [6], binding was put at a Kd of 1.61 nM. The molecule further came in with a koff in [6] of 8.34e-05 s⁻¹. The molecule also showed a kon in [6] of 51900 M⁻¹ s⁻¹.

B2: HaloTag[22-297](M2F + D53G + K140E)-12xGly/Ser-LgBiT-3xGly/Ser-6xHis (other)
chain: B1 chain with D53G, K140E
Take B2: the dissociation constant Kd in test [7] turned out to be 0.613 nM; in [6] it was 0.576 nM; in test [8], 0.782 nM; in [9], 0.713 nM; in test [11], 0.323 nM. The koff was determined as 6.77e-05 s⁻¹ in test [7]; 4.82e-05 s⁻¹ in [6]; 6.94e-05 s⁻¹ in test [8]; 6.05e-05 s⁻¹ in test [9]; 1.98e-05 s⁻¹ in test [11]. Besides, the kon in [7] came to 110000 M⁻¹ s⁻¹; in [6], 83800 M⁻¹ s⁻¹; in [8], 88700 M⁻¹ s⁻¹; in [9] it was 84800 M⁻¹ s⁻¹; in [10] it was 71400 M⁻¹ s⁻¹; in test [11] it was 61300 M⁻¹ s⁻¹.
